In patent publication US20220056119A1:

How the values were obtained:
[1] = biological target: Activin A (R&D Systems, #338-AC) (human) (UniProt P08476); assay: SPR blocking: 5 nM Activin A + 0.00 nM binder over hActRIIB-hFc (Control 4) surface
[2] = biological target: Activin A (R&D Systems, #338-AC) (human) (UniProt P08476); assay: SPR blocking: 5 nM Activin A + 3.75 nM binder over hActRIIB-hFc (Control 4) surface
[3] = biological target: Activin A (R&D Systems, #338-AC) (human) (UniProt P08476); assay: SPR blocking: 5 nM Activin A + 0.94 nM binder over hActRIIB-hFc (Control 4) surface
[4] = biological target: Activin A (R&D Systems, #338-AC) (human) (UniProt P08476); assay: SPR blocking: 5 nM Activin A + 60 nM binder over hActRIIB-hFc (Control 4) surface
[5] = biological target: Activin A (R&D Systems, #338-AC) (human) (UniProt P08476); assay: SPR blocking: 5 nM Activin A + 7.50 nM binder over hActRIIB-hFc (Control 4) surface
[6] = biological target: Activin A (R&D Systems, #338-AC) (human) (UniProt P08476); assay: SPR blocking: 5 nM Activin A + 15 nM binder over hActRIIB-hFc (Control 4) surface
[7] = biological target: Activin A (R&D Systems, #338-AC) (human) (UniProt P08476); assay: SPR blocking: 5 nM Activin A + 30 nM binder over hActRIIB-hFc (Control 4) surface
[8] = biological target: Activin A (R&D Systems, #338-AC) (human) (UniProt P08476); assay: SPR blocking: 5 nM Activin A + 1.88 nM binder over hActRIIB-hFc (Control 4) surface
[9] = biological target: activin Type II receptors (ActRIIA and ActRIIB) on A204/CAGAx12-Luc cells; assay: cell-based or functional assay
[10] = biological target: Activin A (homodimer of two inhibin betaA subunits) (human) (UniProt P08476); assay: cell-based or functional assay
Chain of Activin A (homodimer of two inhibin betaA subunits) (human) (P08476 311-426 limits assumed): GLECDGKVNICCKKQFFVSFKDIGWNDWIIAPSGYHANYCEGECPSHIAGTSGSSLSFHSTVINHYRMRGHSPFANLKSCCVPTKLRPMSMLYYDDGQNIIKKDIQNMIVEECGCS

Chain of Activin A (R&D Systems, #338-AC) (human) (P08476 311-426 limits assumed): as above

Row | % bound RU w/ no inhibitor [1] | % bound RU w/ no inhibitor [2] | % bound RU w/ no inhibitor [3] | % bound RU w/ no inhibitor [4] | % bound RU w/ no inhibitor [5] | % bound RU w/ no inhibitor [6] | % bound RU w/ no inhibitor [7] | % bound RU w/ no inhibitor [8] | activation of the A204/CAGAx12-Luc cell line (Smad 2/3-luciferase reporter), EC50 [9] | Substance | also measured
1 | 100% | 104% | 105% | 115% | 107% | 110% | 111% | 105% |  | isotype control antibody | 
2 |  |  |  |  |  |  |  |  | 19 pM | Activin AB (heterodimer of one betaA subunit and one betaB subunit) (from UniProt P08476 311-426; P09529 293-407) (ligand) | 
3 |  |  |  |  |  |  |  |  | 4400 pM | Activin AC (heterodimer of one betaA subunit and one betaC subunit) (from UniProt P55103 237-352) (ligand) | 
4 |  |  |  |  |  |  |  |  |  | GDF11 (from UniProt O95390 299-407) (ligand) | activation of A204/CAGAx12-Luc cells, EC50 [9]: 84 pM; activation of A204/CAGAx12-Luc cells, EC50 (separate day) [9]: 166 pM
5 | 100% | 120% | 135% | 2% | 33% | 2% | 1% | 133% |  | Control 3 (murine anti-Activin A monoclonal antibody from R&D Systems, catalog number MAB3381) | 
6 |  |  |  |  |  |  |  |  |  | isotype control antibody (Example 7) | action potential duration, cardiomyocytes chronically treated with 1 nM activin A plus isotype control [10]: 0.56 s; calcium flux falling time, cardiomyocytes treated with activin A plus isotype control [10]: 0.75 s; calcium flux rising time, cardiomyocytes treated with activin A plus isotype control [10]: 0.36 s; field potential amplitude, cardiomyocytes chronically exposed to activin A plus 25 nM isotype control [10]: 42.9 µV; field potential downstroke velocity, cardiomyocytes exposed to activin A plus 25 nM isotype control [10]: 0.019 V/sec; peak calcium handling amplitude, cardiomyocytes treated with activin A plus isotype control [10]: 484 RFU
